The values below are quoted from earlier work in publication PMC4244080.

In this data set the target is insulin receptor (Homo sapiens) (UniProt P06213). In words: radioligand binding.
Chain of UniProt P06213 (P06213 763-1382): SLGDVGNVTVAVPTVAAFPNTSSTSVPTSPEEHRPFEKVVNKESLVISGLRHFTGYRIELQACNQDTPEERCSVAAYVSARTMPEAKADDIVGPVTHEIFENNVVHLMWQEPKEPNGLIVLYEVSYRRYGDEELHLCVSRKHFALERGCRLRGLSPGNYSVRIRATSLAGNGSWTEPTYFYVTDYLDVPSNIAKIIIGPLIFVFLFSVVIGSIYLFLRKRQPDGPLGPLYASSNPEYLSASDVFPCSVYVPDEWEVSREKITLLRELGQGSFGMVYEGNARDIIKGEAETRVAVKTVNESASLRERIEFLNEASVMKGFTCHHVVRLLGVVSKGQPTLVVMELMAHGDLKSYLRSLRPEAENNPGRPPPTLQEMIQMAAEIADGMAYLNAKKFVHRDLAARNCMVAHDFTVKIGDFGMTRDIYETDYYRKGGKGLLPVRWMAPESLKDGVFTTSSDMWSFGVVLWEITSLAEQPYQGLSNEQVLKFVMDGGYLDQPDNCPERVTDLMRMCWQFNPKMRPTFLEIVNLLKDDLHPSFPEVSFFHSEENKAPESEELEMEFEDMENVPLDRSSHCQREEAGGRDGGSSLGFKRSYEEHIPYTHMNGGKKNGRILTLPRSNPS

Chain of insulin (P01308 90-110): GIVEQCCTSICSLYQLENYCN

As usually defined, the Kd is the equilibrium constant for the complex coming apart. In the case of insulin (from UniProt P01308), the Kd is 0.3 nM.
